The target of one series is T1, TtOGT (Thermobaculum terrenum, UniProt D1CIY5, K341M).
T1 construct: gene Tter_2822; full-length, N-terminal GST fusion from E. coli BL21, GST cut off with PreScission protease (pGEX-6P-1)
In words: X-ray crystal structure of complex, […] A. The conditions noted are these: co-crystallized with 10 mM UDP; active site; mutant stated in the crystallization methods; PDB code assigned by reader. It is filed as binding.

The next series deals with T2, TtOGA (Thermobaculum terrenum, UniProt D1CDN2).
T2 construct: gene Tter_0116; full-length, N-terminal GST fusion from E. coli BL21, GST cut off with PreScission protease (pGEX-6P-1)
The series can be described thus: fluorogenic 4MU-GlcNAc hydrolysis; Ki from IC50 by Cheng-Prusoff. It is filed as biochemical. The conditions noted are these: 4MU-GlcNAc 90 uM (= Km); 4 pM enzyme; 1 min preincubation.

Substrate in series [1]: CC(=O)N[C@H]1[C@H](Oc2ccc3c(C)cc(=O)oc3c2)O[C@H](CO)[C@@H](O)[C@@H]1O
In words: fluorescence of released 4-methylumbelliferone, Michaelis-Menten fit. It is filed as biochemical, Thermobaculum terrenum. The conditions noted are these: TBS, 0.1 mg/ml BSA, 2% DMSO; 0.2 nM enzyme.

For series [2], the target named is T3, TtOGA D120N (Thermobaculum terrenum O-GlcNAcase orthologue, product of gene Tter_0116, catalytic acid mutant) (Thermobaculum terrenum strain YNP1, UniProt D1CDN2 1-474, D120N).
T3 construct: O-GlcNAcase (GH84) orthologue TtOGA of Thermobaculum terrenum YNP1, gene Tter_0116, full length, cloned into pGEX-6P-1; GST removed with PreScission protease; also called D120N mutant of TtOGA; Ttoga product; source: E. coli BL21, purified (GSH-Sepharose, PreScission cleavage, Superdex 75); not shown: GST, N-terminal, cleaved
T3 sequence (looked up): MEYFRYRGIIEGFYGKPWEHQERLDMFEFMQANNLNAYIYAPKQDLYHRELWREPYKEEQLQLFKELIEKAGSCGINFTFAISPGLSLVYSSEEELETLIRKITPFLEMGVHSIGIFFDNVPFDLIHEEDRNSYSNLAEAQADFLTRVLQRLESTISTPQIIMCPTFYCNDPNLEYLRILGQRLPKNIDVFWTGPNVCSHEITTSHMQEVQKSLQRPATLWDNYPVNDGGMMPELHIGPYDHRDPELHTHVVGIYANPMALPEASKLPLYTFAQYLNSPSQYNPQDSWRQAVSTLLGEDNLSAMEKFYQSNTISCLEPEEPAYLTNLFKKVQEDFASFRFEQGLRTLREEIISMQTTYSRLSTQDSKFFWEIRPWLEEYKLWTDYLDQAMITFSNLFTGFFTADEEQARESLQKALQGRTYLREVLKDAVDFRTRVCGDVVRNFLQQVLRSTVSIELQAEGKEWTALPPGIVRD
The series can be described thus: crystal structure; co-crystallised: 40 mg/ml TtOGA D120N with 7.2 mM hTab1-O-GlcNAc peptide in 50 mM HEPES pH 7.5, 250 mM NaCl, 0.5 mM TCEP; sitting drops, 38% PEG 4000, 400 mM sodium acetate, 0.1 M Tris-HCl pH 8.5, 22 °C; 2.06 Å. The conditions noted are these: both partners purified.

Substitutions are numbered along the chain they refer to. Where no end group is shown, it is not given here. The star is where a group is joined. βGlcNAc = CC(=O)N[C@@H]1[C@@H](O)[C@H](O)[C@@H](CO)O[C@H]1*

T2 sequence (D1CDN2 entry or part of it): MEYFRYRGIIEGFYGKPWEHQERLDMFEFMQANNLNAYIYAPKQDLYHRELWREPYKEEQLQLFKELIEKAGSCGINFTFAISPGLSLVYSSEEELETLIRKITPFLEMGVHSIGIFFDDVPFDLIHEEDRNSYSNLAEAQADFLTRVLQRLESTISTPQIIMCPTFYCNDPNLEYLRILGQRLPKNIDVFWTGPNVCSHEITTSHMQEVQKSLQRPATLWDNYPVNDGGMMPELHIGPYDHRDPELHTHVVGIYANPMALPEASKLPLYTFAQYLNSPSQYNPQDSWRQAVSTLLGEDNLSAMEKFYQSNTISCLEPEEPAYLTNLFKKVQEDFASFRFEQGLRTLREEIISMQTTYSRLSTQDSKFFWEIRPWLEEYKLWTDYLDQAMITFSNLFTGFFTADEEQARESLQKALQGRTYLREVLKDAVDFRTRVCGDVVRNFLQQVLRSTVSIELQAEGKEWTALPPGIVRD
T1 sequence (D1CIY5 entry or part of it K341M): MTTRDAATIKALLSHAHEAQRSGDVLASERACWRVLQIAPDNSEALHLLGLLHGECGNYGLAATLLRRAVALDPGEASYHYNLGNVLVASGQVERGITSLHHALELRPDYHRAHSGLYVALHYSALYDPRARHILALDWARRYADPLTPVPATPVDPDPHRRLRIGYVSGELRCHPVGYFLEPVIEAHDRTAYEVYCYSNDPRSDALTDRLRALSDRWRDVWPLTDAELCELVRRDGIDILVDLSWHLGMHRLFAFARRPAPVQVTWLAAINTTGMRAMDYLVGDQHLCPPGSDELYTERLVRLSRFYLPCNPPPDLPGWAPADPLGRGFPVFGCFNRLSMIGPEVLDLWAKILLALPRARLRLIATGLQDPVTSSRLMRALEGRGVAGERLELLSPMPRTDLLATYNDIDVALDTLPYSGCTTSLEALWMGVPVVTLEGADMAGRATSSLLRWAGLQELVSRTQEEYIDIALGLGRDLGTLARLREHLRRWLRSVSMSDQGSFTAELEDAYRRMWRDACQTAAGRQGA

Consider `O=c1ccn([C@@H]2O[C@H](COP(=O)(O)OP(=O)(O)O)[C@@H](O)[C@H]2O)c(=O)[nH]1` [UDP], for which, at TtOGT, the “X-ray crystal structure of complex, 2.80 A” value was “TtOGT was co-crystallized with the product of O-GlcNAc transfer, UDP”.
Broadly, the Ki is a measure of affinity in units of concentration, obtained from inhibition or displacement. `C=CC=CC(=O)N[C@H]1c2nc(CCc3ccccc3)cn2[C@H](CO)[C@@H](O)[C@@H]1O` [GlcNAcstatin G]: affinity on TtOGA was put at a Ki of 18 nM. In other words, the double-digit nanomolar range.

B1: TtOGA (Thermobaculum terrenum ATCC BAA-798) (protein)
chain: T3 sequence (looked up) with N120D
notes: full-length, N-terminal GST fusion from E. coli BL21, GST cut off with PreScission protease (pGEX-6P-1)
In general, Km refers to the substrate concentration at which the rate is half of its maximum. The term kcat denotes the maximal rate divided by the concentration of active sites. B1: in series [1], the Km came to 90 µM and the kcat is 180 s⁻¹.

B2: hTab1-O-GlcNAc peptide (392-VPYgSSAQ-398, gS is GlcNAcylated serine) (peptide)
peptide: VPYS(βGlcNAc)SAQ
notes: probably synthetic; also called hTab1 glycopeptide; glycopeptide derived from the validated hTab1 glycosylation site
B2: in series [2], the binding result is listed as “binds”.

The values above are taken from article PMC4683255, “Evidence for a Functional O-Linked N-Acetylglucosamine (O-GlcNAc) System in the Thermophilic Bacterium Thermobaculum terrenum*” (The Journal of Biological Chemistry, 2015).
